Assay results published in the supplement of paper PMC7877785.
± gives the uncertainty stated by the source.

Assay: self-splicing fitness, log relative to wild type (ln ratio); higher = more splicing; Tetrahymena group I intron in knt gene, E. coli kanamycin selection, DiMSum; sequences stand for … in CUCUCU…GGAGGGAAAAGUUAUCAGGCAUGCACCUGGUAGCUAGUCUUUAAACCAAUAGAUUGCAUCGGUUUAAAAGGCAAGACCGUCAAAUUGCGGGAAAGGGGUCAACAGCCGUUCAGUACCAAGUCUCAGGGGAAACUUUGAGAUGGCCUUGCAAAGGGUAUGGUAAUAAGCUGACGGACAUGGUCCUAACCACGCAGCCAAGUCCUAAGUCAACAGAUCUUCUGUUGAUAUGGAUGCAGUUCACAGACUAAAUGUCGGUCGGGGAAGAUGUAUUCUUCUCAUAAGAUAUAGUCGGACCUCUCCUUAAUGGGAGCUAGCGGAUGAAGUGAUGCAACACUGGAGCCGCUGGGAACUAAUUUGUAUGCGAAAGUAUAUUGAUUAGUUUUGGAGUACUCGUGGUCG
Summary of the method: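 A randomised library covering all eight P1ex-region intron nucleotides was built with the intron in the knt kanamycin-resistance gene on pET-22b(+) and held in E. coli BL21(DE3). Cells were grown overnight at 37°C or 30°C on LB agar, with or without 25 μg/mL kanamycin, plus 100 μg/mL carbenicillin, 50 μM IPTG and 0.2% rhamnose, and pooled colonies were amplicon-sequenced on an Illumina HiSeq 2500. DiMSum fitness is the error-weighted combination of wild-type-normalised replicate fold changes, kanamycin versus none.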

Sequence	self-splicing fitness (ln) (30 °C)	self-splicing fitness (ln) (37 °C)
UCCAAGCAAUAUUACGACUC	-3.4 ± 0.29	-2.62 ± 0.24
UUACAGCAAUAUUACGUUUU	-3.4 ± 0.11	-0.802 ± 0.092
GGCAAGCAAUAUUACGCGGU	-2.97 ± 0.14	-1.37 ± 0.12
UGCCAGCAAUAUUACGCUCG	-0.839 ± 0.086	-0.622 ± 0.14
UUAAAGCAAUAUUACGAAUU	-1.97 ± 0.11	-2.46 ± 0.21
UCAUAGCAAUAUUACGUUUG	-3.04 ± 0.18	-1.84 ± 0.2
UGUCAGCAAUAUUACGGGGU	-2.91 ± 0.18	-2.49 ± 0.23
UAUGAGCAAUAUUACGUUAU	-3.87 ± 0.33	-2.46 ± 0.19
CUCAAGCAAUAUUACGUCAC	-3.4 ± 0.22	-2.7 ± 0.21
CCUGAGCAAUAUUACGAGUG	-1.44 ± 0.097	-0.572 ± 0.12
CUGAAGCAAUAUUACGAAAC	-3.39 ± 0.25	
UGUGAGCAAUAUUACGCUUC	-2.97 ± 0.39	
AUCGAGCAAUAUUACGAGAC	-1.99 ± 0.32	
GGCAAGCAAUAUUACGAUAC	-0.974 ± 0.076	-0.363 ± 0.087
UCGAAGCAAUAUUACGUGUC		-2.37 ± 0.37
GGUGAGCAAUAUUACGCCGU	-2.63 ± 0.42	
CCGUAGCAAUAUUACGGAAU	-3.73 ± 0.3	-1.92 ± 0.32
CGAAAGCAAUAUUACGUUGU	-3.63 ± 0.15	-2.7 ± 0.15
GUUCAGCAAUAUUACGGAGA		-1.33 ± 0.29
CUCGAGCAAUAUUACGAUAA	-2.16 ± 0.36	-2.02 ± 0.37
CUCUAGCAAUAUUACGCUGA	-1.6 ± 0.21	-2.31 ± 0.27
UGUCAGCAAUAUUACGAUUC	-1.84 ± 0.11	-0.335 ± 0.13
AAAGAGCAAUAUUACGAUCA	-3.02 ± 0.21	-1.68 ± 0.14
CUGGAGCAAUAUUACGCCAU		-2.32 ± 0.34
UGCUAGCAAUAUUACGCUUG	-3.74 ± 0.21	-0.96 ± 0.13

Sequence	self-splicing fitness (ln) (30 °C)	self-splicing fitness (ln) (37 °C)
CCCCAGCAAUAUUACGAGAA	-3.4 ± 0.29	-2.37 ± 0.23
AUUAAGCAAUAUUACGCAUA	-1.98 ± 0.24	-1.32 ± 0.22
UGGAAGCAAUAUUACGAUAC	-3.37 ± 0.49	-2.54 ± 0.48
GACGAGCAAUAUUACGUUCC	-3.47 ± 0.23	-2.65 ± 0.36
GUUAAGCAAUAUUACGUUCC	-2.16 ± 0.18	-0.875 ± 0.23
UCGUAGCAAUAUUACGUGCG	-2.44 ± 0.14	-0.347 ± 0.14
AGGCAGCAAUAUUACGAGAU	-3.01 ± 0.15	-2.26 ± 0.2
AUUAAGCAAUAUUACGUAAA	-1.29 ± 0.12	-1.15 ± 0.14
CCCGAGCAAUAUUACGUUAG	-3.6 ± 0.17	-2.8 ± 0.22
AGCCAGCAAUAUUACGCAUG	-2.87 ± 0.11	-2.2 ± 0.12
CGUUAGCAAUAUUACGCAAU		-1.02 ± 0.23
AUUCAGCAAUAUUACGACGC	-0.246 ± 0.11	0.397 ± 0.14
UUCGAGCAAUAUUACGUGAU	-1.8 ± 0.2	-1.35 ± 0.21
AAAAAGCAAUAUUACGUAGC	-3.26 ± 0.15	-1.64 ± 0.12
GAUCAGCAAUAUUACGCUAA	-1.11 ± 0.12	-0.316 ± 0.15
CAAUAGCAAUAUUACGGCGC	-3.81 ± 0.35	-1.37 ± 0.19
UCUCAGCAAUAUUACGAUCA	-0.104 ± 0.17	-0.219 ± 0.17
AUCGAGCAAUAUUACGCAUG	-3.62 ± 0.37	-2.62 ± 0.26
UGUCAGCAAUAUUACGUAGA	-0.492 ± 0.057	-0.604 ± 0.081
GGGAAGCAAUAUUACGAGCG	-1.41 ± 0.12	-0.447 ± 0.15
CGCCAGCAAUAUUACGUGAA	-1.76 ± 0.1	-1.1 ± 0.14
CUUAAGCAAUAUUACGUGCA	-2.91 ± 0.19	-1.34 ± 0.18
UUAUAGCAAUAUUACGCACA	-0.698 ± 0.085	0.287 ± 0.084
GGGGAGCAAUAUUACGCGUG	-1.75 ± 0.13	-1.96 ± 0.17
CGCAAGCAAUAUUACGCGUA	-3.47 ± 0.15	-2.55 ± 0.12
